Experimental data reported in patent US20240026407A1, “MODIFICATION OF SAPONINS” (GLAXOSMITHKLINE BIOLOGICALS SA, priority 2020, published 2024).

B1: 1074 (protein, listed as Actinoplanes sp.)
chain: MKGSFAVLAAALLLMPVSAPTAAAEPAVTLDGAHWIWYPEGDPATSAPAATRYLRRAFTVAASDIATAQLVVTGDDTIDVWVNGVRLAGSPRAADSWKRAVRVDLAGSLHPGSNTVALAARNTGGPAGVLGRLHAGSVDLVTDGSWRAATGVPENWADPAFSDVAWTTAKDLGAYGGGPWGAGVALPDPAAASPVSVTDLTVNRQADPVGVDTPRFGWRLAAGTGGQMQGRYQLTVGSTAGAADVWDSGIVASTASRDIGYSGPALGANRTYFWRVRVWDAQGRPSAWSAGARFDTGIALTAAFVGAPPAGDLSGADWIWYPEGDPATSAPAATRYFRRTVTLATSTTLVVAGDDTADVWVDGTQISASPRVTDSWKTAATVTVPAGTRTIAIAASNTTVGPAGVIAKLGGIVTDGSWRSATAAPGGWQQPGFDDSGWLAAKVLAAYGSGPWGGQVLVPAAAPYLRKGFAVTRPVARARLFATALGLHDTYLNGARVGTERLAPGWTDYTKRVQYRGYDVTAALRLGDNALAAQIGHGWYSGNIGFAGSRRYGTQPWYAAQLIIEYTDGTSATVQTDGSWRTAPGNILGDDLYAGETQDARLIRSGWNTAGFDDSDWVPVTVQNGARPTLVPQVDPGVTVQQELRPVAVTQPKPGVFIADLGQNFTGWDRLRVSGPAGTTVTLRHGEILNADGTLYTANLRAAQATDRFTLAGTGTETFEPRFTVHGYRYVEITGFPGTPDADSLTGLAAWTGGAATGMFTSSDSTLNQVQRAILWGARSNLLSIPTDCPQRDERLGWTGDIAAFVATSTFNFDTYGLLAKFATDLTDAQHSDGAFTDVAPDVLGGAGKAGWGDAGVIVPYTVWQRFGDLAPADRNFAAMARWVDYLRSTAGADLIRNQDTYGDWLNVDDGTGNDLTSTAFFGWSARLVSRMAAATGRTAQAATYGTLADQIAAAFTGRFVHADNTVGTGSETGYVLALAFGLVPGDRVQAVADRLAAKVASRNGHLSVGFMGVENLLPVLADHGHADVAYRILQQPDYPGWGYMIARGATTIWERWDGIRPDGSLQDPGMNSFNHYGLGSVGDWLYREVGGVAPAAPGYAQVLLAPKPGGSLTSASAELTTTFGRVRSAWSRSGSAVTLQVVVATGTTATVRVPGTAVTSAPAEAVPVGGTSYVVGAGSYTFTSTL
B2: 1046 (protein)
chain: MQYWQKQLKFTSIILLSGLTLGGITACAEQDIAQLQNVEAEPSPVEQEAQTSLATSFKHPPHEAKPLTWLHAMSGNMSKAGLTKDLEAIAEAGLGGTMLFNVTQGIPLGKVKFNSTEHIDLIGHLAAESQRLGLSFGMHNCDGWTSSGGPWVTPEHSMKQITYNETIVDGGNVNIKLAQPATMLDYYQDIAVIAYPSLATEITDFTVKPKITASDANFDAQIVQNNNLTDYSSITPSNEQPGWLQFSYQQPYTLRLIDMLLHSGRGLNVSLHISDDGKNFKQVDNLTLRRPGKSTYAFDEAFAGYTAKHFRLVSNKVMHIKELRLSSTPSLDNFSGRTAASRSDYQEFEDIGKPSAELVIDPESVINLTASLNSEGQLITTLPAGKWTIMRFGYTSTGAVNIPASREGTGLEVDKFSKAAFKSHYDAYITNVIDKLKVVAPNALYSIEIDSYEVGAQNWTHNYEQLFQAQFGYDLVPFLPLFAGKFVESPTVAEAVLWDTRDLNNKLITENYYGYFRELAHQDGIKTYLEPYGSGPFNELDVASKADLPMGEFWLDNNNFRLSASASAAHIYNKPIVAAEAFTQFPRNNWLFHPAEGKADSDKSWALGVNQHVFHRFAHQANTHVMPGMTMNRWGAHMDRTQTWWTVAGKPWFKYVARGQQLLRTGHNVADVLWFLGDATPTTCPEKDPISAVLPLNINYDCLNSEVLQRLSVEDGKVTLPHGSQYKILVLNNHQTLTLKSLKKIYQLAQQGAVIVGTPVEQLAGRFVSEQQRQELKMMVDYIWSQPTTYNISTKAKTSHGHTGVFPTHEIAKTSKIDWQKIYNEQNWPLDLAIKNADKFYFTHRRSAQYDIYFIFNDSAQAQVFDARFNISGKIPELWDADTGNITQLGAFSDNGQITRVPLKLGAYDSVFVVFEKSSKAVTALKPEFVLSQPELDVVLDAQQQPKVIKTTHEAIEITGAWQVEFDKFYGLDKSFTFEQLIDWKLHPEQTIQDYSGTATYQKTIDVPAELLADNKQIFLDLGKVKVAANVYLNDKLAGSAWHAPYRIDISNFVQAGKNKLTIKVANLWVNRLLADRKLPDTSGFKIARWQNPITPMPQWYVDNQPAPKSERVTFVTQVFMDDNEPRQSSGLIGPVQLSVRSKTQL
modifications: Catenovulum agarivorans
B3: 1054 (protein, listed as Streptosporangium roseum)
chain: MEQAVAAALAVTDLRMDGRTEPLGLGESAPRFSWRLAAPGRGRAQSAYRIVVGRECDPLAEGAEVLWDTGEVGSSRTFDIAYEGAELRPRTRYQWRARAADEAGTWGDWSPAHWFETGLGDVTGWTADWIGTPAVPGSQRLPSLENVPRIWAAGPLGPSEARTGGFRTRFTVPGGARPLSAWLVIGGALDPQVHLNGMPVAGEVRDGAFVADAGDLIDSGENVLALRAGAVDGLPGGLCVRLEVVLEGRPALPQLVPVAGESAVTVTSDGRWRAAGEPAPGFEQPGFDDTGWSLAEEVGLHGDPPRGREPVADRPSPYLRREFDVPRPVSRARLYATALGVYELHLNGMRVSADHLAPGWTDYRHRVTYQTYDVTALVAEGGNALGAVLADGWYAGNISWFGSFQYGRRLALRAELEIVHDDGTTTRLRTDSDWRAGSGAIRYADLQNGERQDLAAEPVGWTACGFDDSGWLPAVPVSPPAGRPAAAVAPPVRVHEELAPRAVWESSPGVWIADFGQNVVGWVRLTARAGRDRPVVLRHAEVLDHEGALHLANLRSARATDEFLPRGGAGAETFEPRFTFHGFRYVEVSGLREPLTSDAIRARVAYAAMEPAGEFACSDERLNRLQGNIVRGQRGNFLSIPTDCPQRDERLGWTGDIWAFAPTALFNYDARAFLHSWLTDVVDAQAEDGAVTHVVPDVLSGRGLSPNPREAGSPGWGDAIVMLPWALYRLCGDADAVARYYGPMRRWLAYLDSRSTDGIFPDEGFGDWLSIGADTPKRLVGTAIFALSARQLAELAAALGRADDERACLEVYARVRRAFRAAFVQGPGVVESGTQTAYVLAITAGLLEEAELPRAAARLVRDIEARGGHLSTGFLGTPFLLDALTRSGHLGTAYRLLLQESFPSWLYPVVHGDATTMWERWDGWSHHRGLQDPGMNSFNHYAYGAVGAWMYETIGGLAPASPGYRAIVVRPRPGGELTWARTAYRTRHGRVEIAWRREGGDFTLEVRVPPNTRAEVWVPGGPAGVTESGRPAAESPGVALDRVVDGHAVYEVGSGSYAFHV
B4: 1015 (protein)
chain: MITIIGLGVEHSERGCVTDNPHPRFSYAVRSDRSDVVVDGARLAVGDWTCEAGDQTAVAYDGKPLEPFTEYHVTLDVSTADGEHAHAETTFETGRLGQGWQGRWISDAGYDFVEKKVSPVPMMFRKPFTCDPTKSVRKARLYATAMGVYDFACDGKRIGDRYFAPGFTSYKTNLQYQTYDVTDMVGAGAVHTLLATVAGGWAVGSFVFTRKNRVSADRQALLAELRIEYTDGSVEVIGTDASWEVSESGPVRMADLYDGETYDAMMDPGADGSRCKDWRHASLENPRSRPRHIEADYGAGVVAHETLSPVSVARRAGGELVYDFGQNLAGVVRMRIANGRAGQTVVVRHAEILNPDGSLNTAFLRTAKATATYRCADADGFPEGVQEYGPRFTYMGFRYVSVRGVAEDDLRIEAVVLHSDLRPIGDFACSDERLNQLQHNIVWGAKSNLMDIPTDCPQRDERMGWTGDIAVFAPTACLNFDMSRFLEKWLRDVKAEQLKTGGIPNTVPVQGYGFPATMPEMAIDWWGDACVLVPWAVYRSSGDATVLHDMYDTMKRYVKACRFWAGLIGFGKSRYIWNTPSMLHFGDWVAPDVPKMSQWQKRAKWTATASLNNTSRTLARVAEVLGYDEDARAYDELADKVADAYCSVLTDGNGRLDNEFQTGYVLPLYLNMFPETVRGNAVDHLVKLIEDNDYCIGTGFPGTPYILFALADNGREDVAYRMLLNTACPSWLYEVGMGATTIWERWDGLDENGECPIGDDGTDLMISYNHYASGAVGAFLYQRVAGIEAIGAAYRSFRVRPVLGGGLTWAKAHVDTPYGRVGSAWSLDGGRFSITVEVPVGTTCELALPDGTTMQLSNGVHTATCEM
modifications: Bifidobacterium moukalabense
B5: 1063 (protein, listed as Parabacteroides distasonis)
chain: MNNKINDATMRIKQSIYIYAFAALLLGGCKSNNELTIPTNLRTEYLTEPIGLDTSSPRFTWEYSGNEEGFKASRYEVRIGTSPDDLRPYAEGMALKPHTRYYWNVTVWDGEGRPCATSETASFETAKFDPSDWSASWITDHKDKEFEPAPLFRKSFPVGKEVKDARVYVASAGYHELFINGERVGTNYLDPGYTHFDKRILYVTHDVTSLLKQGDNAVAAVLGNGWYNEQSVAVWNFHEARWRDRPRLLCELRITYTDGTTEVIGSDETWKTSTGAYTYNNIYSGDKFDARLEEAGWKTAHFDDSKWEAALPAQAPAPLLVAQQMPGIRITEEVRPVSMKRFSDQLYVYSFPKNMSGLCRLKVKGEAGTRITLKHGELLKKDGRLEQGNINVYYHPVKPDEVFQMDVFTLKGTGEEEIFMPSFSYHGFQYVEVESSRPVTLTEENLTGLFMHTDVRPSGSFACSNPLLNKIWEATMQAYRSNLHSIPTDCPQREKNGWTADAHIAIDLGLLGFDGITLYEKWMDDIIDNQREAGEISGIIPSSGWGYGEWPGPVWDAVMFIIPNALYDYYGESRSIERLYPTMLRYLDYLKTKEKDGYLPFGLGDWVYWKATTNNEYTSTAYYYLDYKLMARFASLLGKDAAPYQEKANTLKSLINQKFFNAETGVYAEGTQTAQALALYLGLVPEGKEQLVADKLREVVAGNNYFLDFGLLGSKTVPAMLTKYGYIEDAMKMITKTEAPSWGYWVETMGYSTLPETWTLSPKFADASLNHVFMGDVSAWMMNQLAGINHDDSAPGFRHIRITPHFVKELDWAKGEYHSVRGRIASEWKREGDKVMLTVTIPADCSADIVVGDQTETVSAGTHTFTYPA

assay: Experiment 6-1: specificity of rhamnosidases towards other rhamnose residues (C3 saccharide rhamnose, C28 saccharide rhamnose); assay type: biochemical, Quillaja saponaria; settings: TBE 2%, pH 7.5, 30 degC, 18 h; LCMS/MS; negative controls 0.18, 0.17

Molecule | ratio PP/QS-21
B1 | 0.18
B2 | 0.13
B3 | 0.17
B4 | 0.15
B5 | 0.17

assay: Experiment 6-1: screening of rhamnosidases for derhamnosylation of saponins in treated bark extract (2%), QS-17 2296 to QS-18 2150 (PAR %); assay type: biochemical, Quillaja saponaria; settings: TBE 2%, pH 7.5, 30 degC, 18 h; TIC peak area ratio percent of rhamnosylated starting saponin to derhamnosylated product, LCMS/MS; negative controls 4.876, 5.225

Molecule | QS-17 (PAR %) [%]
B1 | 4.443
B2 | 4.051
B3 | 4.348
B4 | 4.132
B5 | 4.201

assay: Experiment 6-1: screening of rhamnosidases for derhamnosylation of saponins in treated bark extract (2%), QS-17 2310 to QS-18 2164 (PAR %); assay type: biochemical, Quillaja saponaria; settings: TBE 2%, pH 7.5, 30 degC, 18 h; TIC peak area ratio percent, LCMS/MS; negative controls 3.061, 2.429

Molecule | Peak57 (PAR %) [%]
B1 | 1.681
B2 | 2.480
B3 | 2.487
B4 | 3.048
B5 | 2.473

assay: Experiment 6-1: screening of rhamnosidases for derhamnosylation of saponins in treated bark extract (2%), desglucosyl-QS-17 2134 to QS-21 1988 (PAR %); assay type: biochemical, Quillaja saponaria; settings: TBE 2%, pH 7.5, 30 degC, 18 h; TIC peak area ratio percent, LCMS/MS; negative controls 2.719, 2.158

Molecule | Peak75 (PAR %) [%]
B1 | 2.312
B2 | 2.446
B3 | 2.160
B4 | 2.969
B5 | 2.240
